Consider one substance from patent publication US20190275133A1.

This assay concerns the target IL-2Rαβ (UniProt P01589). Nature of the assay: in vitro binding affinity against IL-2 as a standard (Example 2: SPR, Biacore T-100, receptor-Fc captured, EC50 of RU against concentration). Background: Surface plasmon resonance follows binding to a sensor surface in real time, without labels.
Sequence of UniProt P01589 (P01589 22-240 limits assumed): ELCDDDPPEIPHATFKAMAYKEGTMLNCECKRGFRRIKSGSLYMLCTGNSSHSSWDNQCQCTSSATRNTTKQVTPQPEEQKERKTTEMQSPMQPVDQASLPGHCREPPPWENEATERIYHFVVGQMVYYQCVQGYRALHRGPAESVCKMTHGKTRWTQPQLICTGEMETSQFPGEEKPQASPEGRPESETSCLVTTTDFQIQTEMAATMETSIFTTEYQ

In turn, “RSLAIL-2 (multiPEGylated recombinant human IL-2 with the aldesleukin sequence; composition of primarily 4-mers, 5-mers and 6-mers of releasably attached mPEG2-C2-fmoc-20kD) (from UniProt P60568 22-153) (ligand)” gave a fold decrease in affinity relative to IL-2 of 60 fold.
